The target of series [1] is T1, CbFic2 (Coxiella burnetii, UniProt Q83DB6 1-378). Put plainly: fluorescence anisotropy; Hill 0.772. As to conditions: protein: recombinant; tags: N-terminal G-H-M remnant after TEV cleavage; label: 5'-FITC on one strand. In general terms: Fluorescence polarisation rises when a labelled molecule tumbles more slowly, as on binding a larger partner.
Series [2] deals with T1, CbFic2. Put plainly: fluorescence anisotropy; Hill 1.354. As to conditions: protein: recombinant; tags: N-terminal G-H-M remnant after TEV cleavage; label: 5'-FITC on one strand.
Series [3] addresses TS-CbFic2 (Coxiella burnetii, UniProt Q83DB6 1-378). Put plainly: fluorescence anisotropy; Hill 1.082. The note with it: protein: recombinant; tags: N-terminal Twin-Strep + EK site (G-H-M-TS-G-A-EK-H-M); label: 5'-FITC on one strand.
In series [4] the target is T1, CbFic2. Put plainly: circular dichroism. The note with it: protein: recombinant; tags: N-terminal G-H-M remnant after TEV cleavage; blunt, self-complementary, 2 copies. In general terms: CD spectra are sensitive to the conformation of chiral molecules.
The target of series [5] is T1, CbFic2. Briefly: fluorescence anisotropy; Hill 0.988. The note with it: protein: recombinant; tags: N-terminal G-H-M remnant after TEV cleavage; label: 5'-FITC on one strand.

B1: 5'-FITC 40 bp dsDNA (dsDNA)
DNA 1: TTGATTACCGTCAGTTGGAGCCCATATTATACATGAAGAC
DNA 2: GTCTTCATGTATAATATGGGCTCCAACTGACGGTAATCAA
The term Kd denotes the equilibrium constant for the complex coming apart. Take B1: the Kd in series [1] was found to be 108 nM.

B2: 5'-FITC 20 bp dsDNA (40% GC) (dsDNA)
DNA 1: AGTTTAGTGCGCTAATCTGA
DNA 2: TCAGATTAGCGCACTAAACT
Take B2: the Kd in series [2] is 220 nM; in series [3], 116 nM.

B3: d(CG)10 duplex, 100% GC (dsDNA)
DNA 1: CGCGCGCGCGCGCGCGCGCG
DNA 2: CGCGCGCGCGCGCGCGCGCG
Turning to B3, the binding result in series [4] is listed as “binds”.

B4: 5'-FITC 60 bp dsDNA (dsDNA)
DNA 1: TCACTCAAGAAGCAGACACAGTAAGACACGGTTTAGCTGATTGTTTATCGATTAGGTCAA
DNA 2: TTGACCTAATCGATAAACAATCAGCTAAACCGTGTCTTACTGTGTCTGCTTCTTGAGTGA
As for B4, in series [5], the Kd turned out to be 36.5 nM.
